Experimental findings from patent publication US20170240604A1 (Harvard, published 2017) are described below.

No end group written: not given here. fluorescein maleimide = fluorescein maleimide (label on cysteine)

For assay [1], the target named is T1, Rab25 (GppNHp-bound) (UniProt P57735 1-213, limits assumed).
T1 sequence (looked up): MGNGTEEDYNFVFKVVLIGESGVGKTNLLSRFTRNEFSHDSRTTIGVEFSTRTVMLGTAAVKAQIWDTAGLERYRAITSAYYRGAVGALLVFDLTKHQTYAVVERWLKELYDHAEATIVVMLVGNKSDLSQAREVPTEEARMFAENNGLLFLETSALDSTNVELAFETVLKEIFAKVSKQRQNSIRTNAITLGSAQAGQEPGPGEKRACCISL
Kind of assay: fluorescence polarization; FITC-labeled 225-3 at fixed concentration, protein titrated; one-site specific binding fit with Hill coefficient.

Another assay addresses T2, RalA (UniProt P11233 1-178, limits assumed).
T2 construct: also called RalA protein
T2 sequence: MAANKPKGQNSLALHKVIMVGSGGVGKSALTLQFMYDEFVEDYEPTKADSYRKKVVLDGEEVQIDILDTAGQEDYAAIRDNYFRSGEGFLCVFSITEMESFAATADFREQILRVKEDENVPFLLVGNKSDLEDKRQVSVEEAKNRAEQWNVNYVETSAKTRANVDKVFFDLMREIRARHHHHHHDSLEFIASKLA
The description is as above.

Another assay concerns the target T3, Rap1a (GppNHp-bound) (UniProt P62834 1-167, limits assumed).
T3 construct: also called Rapla (so in the source)
T3 sequence: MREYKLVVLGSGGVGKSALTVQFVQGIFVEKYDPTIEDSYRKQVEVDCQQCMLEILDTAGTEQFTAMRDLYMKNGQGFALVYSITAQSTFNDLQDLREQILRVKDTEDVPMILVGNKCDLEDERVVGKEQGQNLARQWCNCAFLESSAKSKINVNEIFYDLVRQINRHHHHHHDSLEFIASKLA
Kind of assay: fluorescence polarization, FITC-225-3 with GppNHp-bound Rap1a; FP, GppNHp-bound Rap1a.

A further assay addresses NRas·GppNHp (UniProt P01111). Description: fluorescence polarization, FITC-225-3 with GppNHp-bound NRas.
The target in a further assay is HRas·GppNHp (UniProt P01112 1-177, limits assumed). Description: fluorescence polarization, FITC-225-3 with GppNHp-bound HRas.
Assay [2] deals with T1, Rab25 (GppNHp-bound). Kind of assay: fluorescence polarization, FITC-225-3 with GppNHp-bound Rab25; FP, GppNHp-bound Rab25; weak binding given as a number.
The target of assay [3] is KRas (G12V)·GppNHp (human) (UniProt P01116). Kind of assay: fluorescence polarization; FITC-labeled peptide at fixed concentration, KRas(G12V) GppNHp titrated 0.5 to 5000 nM; one-site fit with Hill coefficient.
The target in assay [4] is K-Ras (mutation and nucleotide state not stated where it is used) (UniProt P01116). Kind of assay: fluorescence polarization.

B1: 225-3 (peptide)
peptide: GCGGPRRPRRPRYPGDDASIEDLHEYWARLWNYLYAVA
modifications: also: Cys2 labelled with fluorescein-maleimide or biotin-PEG2-maleimide, or unlabelled, depending on assay, non-covalent head-to-tail homodimer
notes: Recombinant, TEV-cleaved
For B1, the Kd in the assay with Rab25 (GppNHp-bound) [1] is above 5000 nM; in the assay with RalA it was above 5000 nM; with Rap1a (GppNHp-bound), 3500 nM; with NRas·GppNHp, 45 nM; with HRas·GppNHp, 45 nM; in the assay with Rab25 (GppNHp-bound) [2], around 10000 nM.

B2: 225-3 D11A (peptide)
peptide monomer: GC(fluorescein maleimide)GGPRRPRRPRYPGDAASIEDLHEYWARLWNYLYAVA
Take B2: in assay [3], the Kd worked out at 550 nM.

B3: 225-3 R3A (peptide)
peptide monomer: GC(fluorescein maleimide)GGPRRPARPRYPGDDASIEDLHEYWARLWNYLYAVA
In assay [3], B3 came in with a Kd of 84 nM. This Kd lies about 6.5-fold lower than the previous one.

B4: 225-3 H18A (peptide)
peptide monomer: GC(fluorescein maleimide)GGPRRPRRPRYPGDDASIEDLAEYWARLWNYLYAVA
B4 had a Kd in assay [3] of 170 nM.

B5: RDA3 (peptide)
peptide: GRRPRRPRCPGDDASIEDLHEYWARLWNYLYAVA
modifications: also: FITC label, site not given here
On to B5, for which the Kd in assay [4] worked out at 6 nM.

B6: 225-3 Y29A (peptide)
peptide monomer: GC(fluorescein maleimide)GGPRRPRRPRYPGDDASIEDLHEYWARLWNYLAAVA
With B6, the Kd in assay [3] worked out at 200 nM. This counts as sub-micromolar.

B7: 225-3 R6A (peptide)
peptide monomer: GC(fluorescein maleimide)GGPRRPRRPAYPGDDASIEDLHEYWARLWNYLYAVA
On to B7, for which, in assay [3], the Kd worked out at 340 nM.
